For the data set the following is noted: whole UniProt chain shown; for Tm / unfolding enthalpy (calorimetric) / unfolding enthalpy (van 't Hoff): Thermal.
Setting [1] is: Enterobacteria phage T4, pH 8, DSC, Tris-HCl 10 mM, NaCl 200 mM, reversible: yes.
Where [2] appears, read: Bos taurus, pH 7.5, 25 °C, Urea, CD, Tris-HCl 20 mM, reversible: yes.
Where [3] appears, read: Bos taurus, pH 9, 25 °C, Urea, CD, Tris-HCl 20 mM, reversible: yes.
[4] abbreviates: Dictyostelium discoideum, pH 7.5, DSC, HEPES-NaOH 50 mM, reversible: no.
[5] abbreviates: Dictyostelium discoideum, pH 7.5, DSC, HEPES-NaOH 50 mM, transition: 3, reversible: no.
Setting [6] is: Dictyostelium discoideum, pH 7.5, DSC, HEPES-NaOH 50 mM, transition: 3, reversible: yes.
Where [7] appears, read: Dictyostelium discoideum, pH 8, 25 °C, Urea, Absorbance, Tris-acetate 83 mM, reversible: yes.
Where [8] appears, read: Drosophila melanogaster, pH 6, 5 °C, GdnHCl, CD, sodium phosphate 50 mM, reversible: yes.
[9] abbreviates: Drosophila melanogaster, pH 6, 5 °C, GdnHCl, Fluorescence, sodium phosphate 50 mM, Na2SO4 0.4 M, reversible: yes.
Where [10] appears, read: Drosophila melanogaster, pH 6, CD, sodium phosphate 50 mM, Na2SO4 0.4 M, reversible: yes.
[11] abbreviates: Cavia porcellus, pH 7.4, 25 °C, Urea, CD, NaPi 0.01 M, NaCl 0.15 M, reversible: Yes.
The mark [12] stands for this setting: Cavia porcellus, pH 7.4, DSC, NaPi 0.01 M, NaCl 0.15 M, reversible: No.
The mark [13] stands for this setting: Bos taurus, pH 6.8, 27 °C, GdnHCl, Absorbance, Sodium phosphate 50 mM, NaCl 50 mM, reversible: no.
Setting [14] is: Bos taurus, pH 7.2, DSC, phosphate 20 mM, transition: 3, reversible: no.
[15] abbreviates: Canis lupus familiaris, pH 4.5, 25 °C, GdnHCl, CD, acetate 50 mM, CaCl2 2 mM.
The mark [16] stands for this setting: Canis lupus familiaris, pH 4.5, DSC, Sodium acetate/glycine-HCl 50 mM/50 mM/, transition: 3, reversible: yes.

We go through ten proteins from FireProtDB.

Where “and” joins values, the source holds several entries; their conditions need not be identical. Equal entries are not always repeated.

Usually Tm stands for the temperature at which the thermal transition is half complete.

B1: Single-stranded DNA-binding protein wild type, P03695 (protein)
chain: MFKRKSTAELAAQMAKLNGNKGFSSEDKGEWKLKLDNAGNGQAVIRFLPSKNDEQAPFAILVNHGFKKNGKWYIETCSSTHGDYDSCPVCQYISKNDLYNTDNKEYSLVKRKTSYWANILVVKDPAAPENEGKVFKYRFGKKIWDKINAMIAVDVEMGETPVDVTCPWEGANFVLKVKQVSGFSNYDESKFLNQSAIPNIDDESFQKELFEQMVDLSEMTSKDKFKSFEELNTKFGQVMGTAVMGGAAATAAKKADKVADDLDAFNVDDFNTKTEDDFMSSSSGSSSSADDTDLDDLLNDL
Turning to B1, under setting [1], the Tm stood at 49 °C and the “unfolding enthalpy (calorimetric)” value was determined as 84 kcal/mol.

B2: Pepsin A wild type, P00792 (protein)
chain: MSVVKIPLVKKKSLRQNLIENGKLKEFMRTHKYNLGSKYIREAATLVSEQPLQNYLDTEYFGTIGIGTPAQDFTVIFDTGSSNLWVPSIYCSSEACTNHNRFNPQDSSTYEATSETLSITYGTGSMTGILGYDTVQVGGISDTNQIFGLSETEPGSFLYYAPFDGILGLAYPSISSSGATPVFDNIWDQGLVSQDLFSVYLSSNEESGSVVIFGDIDSSYYSGSLNWVPVSVEGYWQITVDSITMNGESIACSDGCQAIVDTGTSLLAGPTTAISNIQSYIGASEDSSGEVVISCSSIDSLPDIVFTINGVQYPVPPSAYILQSNGICSSGFEGMDISTSSGDLWILGDVFIRQYFTVFDRGNNQIGLAPVA
For the protein B2, the unfolding free energy under setting [2] is 6.36 kcal/mol and the unfolding free energy under setting [3] came to 2.72 kcal/mol.

B3: Nucleoside diphosphate kinase, mitochondrial wild type, P34093 (protein)
chain: MFSRFARAFPKILASGASQRTFATVQKAFANPTSKKLIVGSSLLIGSAFATTSFVACENKSVPLVGLPGTNQERSFIAIKVSSTQRRLIGEIIARFEKKGFKLVGIKILVPTPEHAAKHYEDLNKKPFFNGLVKFFSSGAVVAMVFEGKDVVRTGRVLIGATDPSQSAPGTIRFDLCIETGRNIIHGSDSNESAAHEIALWFKEDEIANWVSTNPVYEKM
With B3, under setting [4], the Tm stood at 61.8 °C and the “unfolding enthalpy (calorimetric)” value is 785 kcal/mol. Under setting [5], the midpoint of thermal melting (Tm) worked out at 55.7 °C and the “unfolding enthalpy (calorimetric)” value is 319 kcal/mol. For the same protein, under setting [6], the Tm worked out at 37.5 °C and the “unfolding enthalpy (calorimetric)” value was 97 kcal/mol. Also, under setting [7], the denaturant m value was determined as 1.71 kcal/mol/M and the unfolding free energy was determined as 5.42 kcal/mol.

B4: Lysozyme C wild type, P00708 (protein)
chain: KDIPRCELVKILRRHGFEGFVGKTVANWVCLVKHESGYRTTAFNNNGPNSRDYGIFQINSKYWCNDGKTRGSKNACNINCSKLRDDNIADDIQCAKKIAREARGLTPWVAWKKYCQGKDLSSYVRGC
For B4, the melting temperature (Tm) (Columba livia, pH 6, CD, MES 50 mM, potassium chloride 100 mM, transition: 3) is 70 °C.

B5: Spermadhesin-1 wild type, P29392 (protein)
chain: MKLSSVIPWALLLSTATVDSMDWLPRNTNCGGILKEESGVIATYYGPKTNCVWTIQMPPEYHVRVSIQYLQLNCNKESLEIIDGLPGSPVLGKICEGSLMDYRSSGSIMTVKYIREPEHPASFYEVLYFQDPQA
Take B5: the Tm (Bos taurus, pH 7, DSC, sodium phosphate 10 mM, reversible: no) was determined as 78.6 °C.

B6: Growth factor receptor-bound protein 2 wild type, Q08012 (protein)
chain: MEAIAKHDFSATADDELSFRKTQILKILNMEDDSNWYRAELDGKEGLIPSNYIEMKNHDWYYGRITRADAEKLLSNKHEGAFLIRISESSPGDFSLSVKCPDGVQHFKVLRDAQSKFFLWVVKFNSLNELVEYHRTASVSRSQDVKLRDMIPEEMLVQALYDFVPQESGELDFRRGDVITVTDRSDENWWNGEIGNRKGIFPATYVTPYHS
In the case of B6, under setting [8], the denaturant m value came to 3.48 kcal/mol/M and the unfolding free energy is 1.47 kcal/mol. In addition, under setting [9], the denaturant m value was found to be 1.39 kcal/mol/M and the unfolding free energy was 2.18 kcal/mol. Also, under setting [10], the Tm was found to be 60.1 °C and the “unfolding enthalpy (van 't Hoff)” value is 33.1 kcal/mol.

B7: wild type, Q8VD40 (protein)
chain: MDGDGDPESVGQPEEVSPEEACAEEACAEGDRPGEEEEEEQEELEEAAYLAELPEALLLRVLAQLPAAELVQACRLVCLRWKELVDGAPLWLLKCQQEGLVPEGCGEEEERDHWQRFYFLSKRRRNLLRNPCGEEDLEGWCDVEHGGDGWRVEEIPGDSGVEFPQDDSVRKYFASSFEWCRKAQVVDLQAEGYWEELLDTTQPAIVAKDWYSGRSDAGCLYELSVKLLSEHEDVLAEFNTGQVPVSPDSEEGGWTEISHTFTDYGPGVRFVRFEHGGQDAVYWKGWFGARVTNSSVWVEP
For B7, under setting [11], the denaturant m value is 0.79 kcal/mol/M and the unfolding free energy worked out at 2.64 kcal/mol. Further, under setting [12], the Tm was 57 °C and the “unfolding enthalpy (calorimetric)” value was 141 kcal/mol.

B8: Chymosin wild type, P00794 (protein)
chain: MRCLVVLLAVFALSQGAEITRIPLYKGKSLRKALKEHGLLEDFLQKQQYGISSKYSGFGEVASVPLTNYLDSQYFGKIYLGTPPQEFTVLFDTGSSDFWVPSIYCKSNACKNHQRFDPRKSSTFQNLGKPLSIHYGTGSMQGILGYDTVTVSNIVDIQQTVGLSTQEPGDVFTYAEFDGILGMAYPSLASEYSIPVFDNMMNRHLVAQDLFSVYMDRNGQESMLTLGAIDPSYYTGSLHWVPVTVQQYWQFTVDSVTISGVVVACEGGCQAILDTGTSKLVGPSSDILNIQQAIGATQNQYGEFDIDCDNLSYMPTVVFEINGKMYPLTPSAYTSQDQGFCTSGFQSENHSQKWILGDVFIREYYSVFDRANNLVGLAKAI
B8: the unfolding free energy under setting [2] was found to be 6.45 kcal/mol; the unfolding free energy under setting [3] is 3.56 kcal/mol and 3.47 kcal/mol.

B9: Gamma-crystallin B wild type, P02526 (protein)
chain: MGKITFYEDRGFQGHCYECSSDCPNLQPYFSRCNSIRVDSGCWMLYERPNYQGHQYFLRRGDYPDYQQWMGFNDSIRSCRLIPQHTGTFRMRIYERDDFRGQMSEITDDCPSLQDRFHLTEVHSLNVLEGSWVLYEMPSYRGRQYLLRPGEYRRYLDWGAMNAKVGSLRRVMDFY
Take B9: under setting [13], the denaturant m value is 1.3 kcal/mol/M and 0.9 kcal/mol/M; the “denaturant midpoint (higher = more stable)” value was 3 M and 1.3 M. Also, the “unfolding enthalpy (calorimetric)” value (Bos taurus, pH 7.2, DSC, phosphate 20 mM, reversible: no) was 82.3 kcal/mol and 149 kcal/mol and 90 kcal/mol. Moreover, under setting [14], the “unfolding enthalpy (calorimetric)” value was 126 kcal/mol and 148 kcal/mol; the “unfolding enthalpy (van 't Hoff)” value is 110 kcal/mol and 71 kcal/mol.

B10: Lysozyme C, milk isozyme wild type, P81708 (protein)
chain: KIFSKCELARKLKSMGMDGFHGYSLANWVCMAEYESNFNTQAFNGRNSNGSSDYGIFQLNSKWWCKSNSHSSANACNIMCSKFLDDNIDDDIACAKRVVKDPNGMSAWVAWVKHCKGKDLSKYLASCNL
As to B10, under setting [15], the denaturant m value is 2.43 kcal/mol/M and 1 kcal/mol/M; the unfolding free energy was 2.84 kcal/mol and 5.27 kcal/mol. Further, the denaturant m value (Canis lupus familiaris, pH 4.5, 25 °C, GdnHCl, CD, acetate 50 mM) is 2.48 kcal/mol/M and 1 kcal/mol/M. For the same protein, under setting [16], the midpoint of thermal melting (Tm) was 39 °C and the “unfolding enthalpy (calorimetric)” value was found to be 44.6 kcal/mol.
